Test results taken from PMC3078985.

Target: CLS (C-terminal fragment of human L-selectin with its entire transmembrane and cytoplasmic domains) (human)
Assay: AUC

- pKd (molar fraction units): 1.49
Substance: CLS (C-terminal fragment of human L-selectin with its entire transmembrane and cytoplasmic domains) (domain or fragment)
